Experimental data taken from patent publication US20240409618A1.

Target: SARS-CoV-2 B.1.351 (Beta) spike on pseudotyped virus (SARS-CoV-2 B.1.351) (UniProt P0DTC2)
Assay: cell-based or functional assay

## DMAb REGN10987 (FcWT) (antibody)
  fold change of neutralization against B.1.351 pseudovirus relative to WA1/2020: < 3 fold
